Laboratory results: publication PMC10135718, “Inhibitory Peptide of Soluble Guanylyl Cyclase/Trx1 Interface Blunts the Dual Redox Signaling Functions of the Complex” (Antioxidants, 2023)

B1: oxidized Trx1 (oTrx1) (enzyme, human, UniProt P10599 1-105, looked up)
chain: MVKQIESKTAFQEALDAAGDKLVVVDFSATWCGPCKMIKPFFHSLSEKYSNVIFLEVDVDDCQDVASECEVKCMPTFQFFKKGQKVGEFSGANKEKLEATINELV
modifications: thiols oxidized with 100 μM diamide (the cysteine engaged in the homodimer is not identified)
notes: Thioredoxin 1, human; same protein as m2, oxidized; mostly a dimer on a non-reducing gel; also used here for the endogenous Trx1 of Jurkat T cells in two functional rows; also called oxidized thioredoxin; source: bought: Fitzgerald industries (30R-2985); treated with 100 μM diamide on ice for 30 min, excess removed
B2: recombinant human Thioredoxin 1 (Trx1), untreated (enzyme, UniProt P10599 1-105, looked up)
chain: MVKQIESKTAFQEALDAAGDKLVVVDFSATWCGPCKMIKPFFHSLSEKYSNVIFLEVDVDDCQDVASECEVKCMPTFQFFKKGQKVGEFSGANKEKLEATINELV
notes: Thioredoxin 1, human; also called untreated Trx1; source: bought: Fitzgerald industries (30R-2985)
B3: oxidized GC1 (oGC1) (complex, human)
chain 1: MFCTKLKDLKITGECPFSLLAPGQVPNESSEEAAGSSESCKATVPICQDIPEKNIQESLPQRKTSRSRVYLHTLAESICKLIFPEFERLNVALQRTLAKHKIKESRKSLEREDFEKTIAEQAVAAGVPVEVIKESLGEEVFKICYEEDENILGVVGGTLKDFLNSFSTLLKQSSHCQEAGKRGRLEDASILCLDKEDDFLHVYYFFPKRTTSLILPGIIKAAAHVLYETEVEVSLMPPCFHNDCSEFVNQPYLLYSVHMKSTKPSLSPSKPQSSLVIPTSLFCKTFPFHFMFDKDMTILQFGNGIRRLMNRRDFQGKPNFEEYFEILTPKINQTFSGIMTMLNMQFVVRVRRWDNSVKKSSRVMDLKGQMIYIVESSAILFLGSPCVDRLEDFTGRGLYLSDIPIHNALRDVVLIGEQARAQDGLKKRLGKLKATLEQAHQALEEEKKKTVDLLCSIFPCEVAQQLWQGQVVQAKKFSNVTMLFSDIVGFTAICSQCSPLQVITMLNALYTRFDQQCGELDVYKVETIGDAYCVAGGLHKESDTHAVQIALMALKMMELSDEVMSPHGEPIKMRIGLHSGSVFAGVVGVKMPRYCLFGNNVTLANKFESCSVPRKINVSPTTYRLLKDCPGFVFTPRSREELPPNFPSEIPGICHFLDAYQQGTNSKPCFQKKDVEDGNANFLGKASGID
chain 2: MYGFVNHALELLVIRNYGPEVWEDIKKEAQLDEEGQFLVRIIYDDSKTYDLVAAASKVLNLNAGEILQMFGKMFFVFCQESGYDTILRVLGSNVREFLQNLDALHDHLATIYPGMRAPSFRCTDAEKGKGLILHYYSEREGLQDIVIGIIKTVAQQIHGTEIDMKVIQQRNEECDHTQFLIEEKESKEEDFYEDLDRFEENGTQESRISPYTFCKAFPFHIIFDRDLVVTQCGNAIYRVLPQLQPGNCSLLSVFSLVRPHIDISFHGILSHINTVFVLRSKEGLLDVEKLECEDELTGTEISCLRLKGQMIYLPEADSILFLCSPSVMNLDDLTRRGLYLSDIPLHDATRDLVLLGEQFREEYKLTQELEILTDRLQLTLRALEDEKKKTDTLLYSVLPPSVANELRHKRPVPAKRYDNVTILFSGIVGFNAFCSKHASGEGAMKIVNLLNDLYTRFDTLTDSRKNPFVYKVETVGDKYMTVSGLPEPCIHHARSICHLALDMMEIAGQVQVDGESVQITIGIHTGEVVTGVIGQRMPRYCLFGNTVNLTSRTETTGEKGKINVSEYTYRCLMSPENSDPQFHLEHRGPVSMKGKKEPMQVWFLSRKNTGTEETKQDDD
modifications: thiols oxidized with 100 μM diamide (cysteines not mapped) | thiols oxidized with 100 μM diamide (cysteines not mapped)
notes: alpha subunit of soluble guanylyl cyclase GC1, human; beta subunit of soluble guanylyl cyclase GC1, human; same protein as m1, oxidized; runs as high molecular weight multimers on a non-reducing gel; also called multimeric oxidized GC1; source: bought: Enzo life sciences (ALX-201-177-C010); treated with 100 μM diamide on ice for 30 min, excess removed
B4: purified recombinant human soluble guanylyl cyclase (GC1), untreated (complex)
chain 1: MFCTKLKDLKITGECPFSLLAPGQVPNESSEEAAGSSESCKATVPICQDIPEKNIQESLPQRKTSRSRVYLHTLAESICKLIFPEFERLNVALQRTLAKHKIKESRKSLEREDFEKTIAEQAVAAGVPVEVIKESLGEEVFKICYEEDENILGVVGGTLKDFLNSFSTLLKQSSHCQEAGKRGRLEDASILCLDKEDDFLHVYYFFPKRTTSLILPGIIKAAAHVLYETEVEVSLMPPCFHNDCSEFVNQPYLLYSVHMKSTKPSLSPSKPQSSLVIPTSLFCKTFPFHFMFDKDMTILQFGNGIRRLMNRRDFQGKPNFEEYFEILTPKINQTFSGIMTMLNMQFVVRVRRWDNSVKKSSRVMDLKGQMIYIVESSAILFLGSPCVDRLEDFTGRGLYLSDIPIHNALRDVVLIGEQARAQDGLKKRLGKLKATLEQAHQALEEEKKKTVDLLCSIFPCEVAQQLWQGQVVQAKKFSNVTMLFSDIVGFTAICSQCSPLQVITMLNALYTRFDQQCGELDVYKVETIGDAYCVAGGLHKESDTHAVQIALMALKMMELSDEVMSPHGEPIKMRIGLHSGSVFAGVVGVKMPRYCLFGNNVTLANKFESCSVPRKINVSPTTYRLLKDCPGFVFTPRSREELPPNFPSEIPGICHFLDAYQQGTNSKPCFQKKDVEDGNANFLGKASGID
chain 2: MYGFVNHALELLVIRNYGPEVWEDIKKEAQLDEEGQFLVRIIYDDSKTYDLVAAASKVLNLNAGEILQMFGKMFFVFCQESGYDTILRVLGSNVREFLQNLDALHDHLATIYPGMRAPSFRCTDAEKGKGLILHYYSEREGLQDIVIGIIKTVAQQIHGTEIDMKVIQQRNEECDHTQFLIEEKESKEEDFYEDLDRFEENGTQESRISPYTFCKAFPFHIIFDRDLVVTQCGNAIYRVLPQLQPGNCSLLSVFSLVRPHIDISFHGILSHINTVFVLRSKEGLLDVEKLECEDELTGTEISCLRLKGQMIYLPEADSILFLCSPSVMNLDDLTRRGLYLSDIPLHDATRDLVLLGEQFREEYKLTQELEILTDRLQLTLRALEDEKKKTDTLLYSVLPPSVANELRHKRPVPAKRYDNVTILFSGIVGFNAFCSKHASGEGAMKIVNLLNDLYTRFDTLTDSRKNPFVYKVETVGDKYMTVSGLPEPCIHHARSICHLALDMMEIAGQVQVDGESVQITIGIHTGEVVTGVIGQRMPRYCLFGNTVNLTSRTETTGEKGKINVSEYTYRCLMSPENSDPQFHLEHRGPVSMKGKKEPMQVWFLSRKNTGTEETKQDDD
notes: alpha subunit of soluble guanylyl cyclase GC1, human; beta subunit of soluble guanylyl cyclase GC1, human; alpha/beta heterodimer as bought; also called untreated GC1; source: bought: Enzo life sciences (ALX-201-177-C010), purified recombinant

Target: the molecule itself
Test: non-reducing SDS-PAGE with Western blot; purified GC1 or Trx1, untreated, reduced (10 mM DTT) or oxidized (100 μM diamide), excess reagent removed; 12% SDS-PAGE under non-reducing conditions, blots probed with anti-GC1 α and β or anti-Trx1

Binding result, binds:
B1
B2
B3
B4
